Experimental findings from IntAct's records for PubMed 22949657 are described below.

The assay concerns the target T1, tp8l2_human TNFAIP8L2 (UniProt Q6P589).
T1 sequence: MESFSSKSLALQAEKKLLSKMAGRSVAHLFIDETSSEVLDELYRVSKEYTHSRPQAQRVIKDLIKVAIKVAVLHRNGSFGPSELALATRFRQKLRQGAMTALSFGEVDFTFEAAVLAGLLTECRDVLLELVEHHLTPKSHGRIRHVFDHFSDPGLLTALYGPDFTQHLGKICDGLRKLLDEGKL

For “Ras-related C3 botulinum toxin substrate 1 (Homo sapiens) (from UniProt P63000-1) C189S”, the “effect of a mutation on the interaction” value was “disrupting interaction strength”.
